Test results from a protein production outcome set (Wang et al. 2014).

Assay: label from the status in PepcDB records

Sequence	protein production
MSDQDVNPEHISDAQPAGTGLVLPGQTLPTTLYVIPIHNRPFFPAQVLPVIVNEEPWAETLELVAKTDHHSLALFFMDNPPEDPRHFDVNSLPEHGTLVRVHHASREGGKLQFVAQGLSRVRIRGWIKRHRPPFMVEVDYPKTPIDPSDEVKAYGMALINAIKELLPLNPLYSEELKNYLNRFSPNDPSPLTDFAAALTTAPGGELQEVLDTVPILKRMEKVLPLLRKEVEVARLQKELSAEVNRKIGEHQREFFLKEQLKIIQQELGITKDDKSADADEFRARLEGKVLPEQARKRIDEELNKLSILESGSPEYAVTRNYLDWATALPWGVYGKDKLDLKHARKVLDKHHAGLDDIKDRILEFLAVGSFKGEIAGSIVLLVGPPGVGKTSIGKSIAESLGRPFYRFSVGGMRDEAEIKGHRRTYIGALPGKLVQALKEVEVMNPVIMLDEIDKLGASYQGDPASALLETLDPEQNVEFLDHYLDLRLDLSKVLFVCTANTLDSIPGPLLDRMEVIRLSGYISEEKLAIAKRHLWPKQLEKAGVPKGRLSISDAALRAVIEGYAREAGVRQLEKQLGKLVRKSVVKLLEDPESKVKIGPRDLEDYLGMPVFRSEQVLSGIGVITGLAWTSMGGATLPIEATRIHTLNRGFKLTGQLGDVMKESAEIAYSYIGSHLKKYGGDPTFFDQAFVHLHVPEGATPKDGPSAGVTMASALLSLARNQVPKKGVAMTGELTLTGQVLPIGGVREKVIAARRQKIFELILPEANRGHFEELPDYLREGLTVHFAKRYGDVAKVLF	failed
MSDRLGIFFSGLCFVHCLATPILLIFLGTNSLASVLETPLFHRLLLLPVLTMAIFQGYYAWKNPQAKLSRVLLPLGCLAVVIAQFFHGPIEILLTIIGSLTLISGHFFHLKHEHCADQN	failed
MSDSAIGVGYAADNPGWLIGMSETQERLQRLRAQAASLVFYAGILESATGRAFLELLDALSHQQPLAAVTAYSTWLGHLLASRQSWPQWLMHHIRSDDNPFSRQAQFAIASSLPEVWQQSACQDLQTLQQLASAPPRLLAPMVQALADLPTPPPHWLEETRDREAQWAETEDWAMLLPDLIQHYQQRGVGFFNRYWALRWQQGQLHGIEHPDPIPLSDLAGYELQKETLKRNTEFLLAGLPAQNVLLYGSCGAGKSSMVKALINAYGDRGLRLIEVGKADLRELPQILDQLRESALSFIVFVDDLSFEEDDETFKALKVVLEGGLTARPPNVVVYATSNRRHLVREYFDERPNPTEANEVHAWDSVQEKLSFSDRFGLTLTFEPADQDTYLAIVRHLASEVGLTMPLETLEFRARQWATRHNGRSGRTARQFMDWLIAEQSLPNPL	failed
MSDSLVVCEVDPELKETLRKFRFRKETNNAAIIMKVDKDRQMVVLEDELQNISPEELKLELPERQPRFVVYSYKYVHDDGRVSYPLCFIFSSPVGCKPEQQMMYAGSKNRLVQTAELTKVFEIRTTDDLTETWLKEKLAFFR	not failed
MSDTLRPYKNLFPGIGQRVMIDTSSVVIGDVRLADDVGIWPLVVIRGDVNYVAIGARTNIQDGSVLHVTHKSSSNPHGNPLIIGEDVTVGHKVMLHGCTIGNRVLVGMGSIVLDGAIIEDDVMIGAGSLVPQHKRLESGYLYLGSPVKQIRPLSDAERSGLQYSANNYVKWKDDYLSQDNHIQP	not failed
MSDTNSGGGRQAASGPAPRGRLPFRRRVALVAVARPLIVTVGLVTAYYLLPLDERLSAGTLVSLVCGLLAVLLVFCWEVRAITRSPHPRLRAIEGLAATLVLFLVLFAGSYYLLGRSAPGSFSEPLNRTDALYFTLTTFATVGFGDITARSETGRILTMAQMTGGLLLVGVAARVLASAVQAGLHRQGRGPAASPRSGAAEEPEAGP	failed
MSDTRRCVVIPAVKKNAVIPDQLVKRLAGVTLIQRAIDTAKALAPGDDIVVVTDSQEIALICERNGVRHVCNPGLHLATLDIVRELRGVLEDLARSYGHIVIYRASCPLLTADDIEDAYATFLREGADCLVTVKSVRHRVWEKRNGGLDALLSQDETEPSIYVESKALVMLDASALTRGEVRKVVPYFLNDRAIEINSYQDWWICEKLLCRKHIVFVVAGYPAIGMGHIFRALMLAHEVADHRITFLCTRESELAASNIAARDYRTRVQQGDDLAADVLSLRPDLVINDILNTDADYVGRLREAGVRVVNFEDEGPGAHLADLVVNALYEEKVDDPRFLHGHRFFCLRDEFVNGVRNDYRDPVRCVLVTFGGTDHSDFSRGTLDAIEPLCRERGITIRLVAGPGYAHKDAMQEHVERLGSPLVEFTYATNVMSRMMEGADLAICSAGRTVYELAHMRVPAIVMAHHEREGRHTFARGRNGFAYLGVMEHFDGAKLTRVFTQLLDAGNRRRLFDRQARFDFIRNKADVVRRITALLDDTPAPENA	failed
MSDVAATAQRQQVRQQGLILGLVTLPFRCFGVLCGSLFLCIVIECIGMALFWPDQGWRHAQAMLGHELDQLSDYFVRSALVQEPGRTAHQWIQHAYEWAFVRSGLLEWMQDASRQARAGASGRPWSLPQVLATVSMHAEGYLIAAAYTVLLFLVRLLMLCLTLPLFALAAFVGLVDGLVRRDIRRFGAGRESGFLYHRARASLVPLAVLPWVTYLALPVRVHPVVILLPSAVLLGVAVDIAAGSFKKYL	failed
MSDVTGDLAAVSEAKGGSDAARISEVKAWLTSQFEAVGKEVPNFEYTHRSITHLYNLATASQAKSQAATIVANDFRLKASEYRAQAARIREILESAGMSQESLPSNVVSSAQVLANVANLLNIRDTELSRILAQLEDDVVPCESQMENWKTNLEVMAVKEEQYIQQYKKYEMLLNRVGYTPKISHRELVEMAEHRKELDKMTKPVLDTLRSYQDLPPDKALAALAIEDKKRQFTAAEKYLEEVLQSALETNDE	failed
MSEATILVSGATGRTGGAAIDELLKSGKQVRAYVRSNDDRAAAFRKRGVEVAIGDFTGIDDIRAAMEGVTSAYFLHPIAPGIIGAAAYFAQAAKEAGVSAIVNMSQISARRESASHAAQDHWISERVFDWSGVATTHLRPTFFADWLVYPHFAKEIWAKKKIEFPFENGRHAPIATDDQGRVIAHILANPEGHGGKTYTLTGPIELNHTEIAAAMSEVLGAKIEYAPTSIDEFRNKMENVYKFPPFLTQHLVEVAQNYRDGIFSGANDAVEKITGTPALSVQQFIAQNRAVFA	failed
MSEEIVLKAGGKIYQGWTKIGITRSLEAMSGAFDLEMTYKFLGNDAQYKAFIEPIKQGQACTVDIGGERVITGYVDDWVPSYDESTITISVSGRDKTADLVDCSIDYPSGQFNNQTLTQIADIVCKPFGIKVIVNTDVGEPFQRIQIEQGETPHELLARLAKQRGVLLTSDTFGNLVITRASKTKAGVSLILGDNVKAARGRFSWRQRFSKFTIKAAGAAHGQWDSAGLPTVGGIKADVTDSEIGRYRPLIIVNEEVTTAEGAAKRGQWERQRSIGKSNMAEYTVTGWRIPQTGKLWNINTLVPVIDEIMGLDEEMLIASILFSEDDAGRLAVISVVRPDAMDIPAQIVKDTKLGGSTW	not failed
MSEFLALFSAMWKESWRDKISTFFSIAFPVMFLLIFGFLFGGSGNSVKTAVVTVDYDLSDFGDVYTSLEELKGYYHEVAVVEKERIIFIRNTTDEYYQSLLDSWEISLKNKVTRLLNGLNPVIMVKKEVLKTARELTSFDYTLTGVIAVSLLSIGLFGTVDVFSRYRERGFLKRLKATPVGNFSFVFGLISARMFYGILSTALIMLLGTLIFKASYELNVFLFLISVVSSVLSFIALGALISILFKKSDVATDAAVILFTIMMFLTGVYFPVSFLPDYLRVVSYFLPVKYGVELIRYSLGFEIFPFSRYLITAVIMFLAGLMFVFYTASLVLRKED	failed
MSEGSNVLVSIILVNYNGADILPDCLNSIDKFISKDNCEILLVDNASQDNSYELVAQDFPDVKIVRLPKNYGFGAGNNAGAKIAKGKFLLLLNTDTILTTNILPHLIDLMRENPDVGIIGTKLVFPDETFQISFAYTIGIKGEYKSRKLHEYAEDKSKLNSLEQEFNTIKEVDIVVGAALFIRADLFHSVGGFDEKFFIYFEDADLCRRVQNQGYKILYTPQVSLIHIRGHSMKKNANATVVEYRRSQLYYYKKHCPVWERIILRIYLFAKFLPEFLATRNPYSLEIIKLLFVIA	failed
MSEIDANYRALAQQVADKVAGRVIALDRLPESLLTAYRSLCDELLADRDGRFTRAWDQLPDSASSLFERCVFHGFYLANAWIQLSIVARDISELQDTDEAIAEQEYSGLYVRVAEAALKESVKKLKKARTDRSMYNSMREVMGI	not failed
MSEIIIQNLISPVVLFFLLGIIAATFKSDLQFPKGLTEALSMYLLIAIGIKGGIELSHYHLEAVIGPVIGTIFLGMLIPVIVLMITRLFMKVDLKNSIALAATYGSTSIVTYGAAVSFLEKSGTTYEGFMNAMVVLKESPAILVSLLLLSIIERQQAVPTTLSSKRVGIVSGHQGLIDKEVLKESFFGKSIILLLGSLIIGLVVGERAIPMVQPLFIDLYQSVLILFLLYMGLTVGERLPEVKKHGIKLILFGVLTPILLGALGVLVGTLAGLSVGGATLMGILAGSASYIAAPAALRTSVPEANPSIYLGLSLGVTFPFNLIFGIPLYFEFAKLLH	failed
MSELARLRQKVSDGLGLATPAADPADKTTRLANEEHASDVRAVALYVAISLSVGAFAAALIALAVPYAVTVVLACFFGAVLMGALFYALFGKSFPLPGTLPADYSDVRLRQTQNRSLIAEMQESMGDIVVIRNMNRRIVEANRVFREMTGCTSPEGLSCEEIGIAFRPGDRVHAYDVEIATPFGQRIFSWHDVVTRDLASSRLMISSIARDVTEERLALAEREDARLRAEKADAEKARLLATVSHEIRLPLSGMLGMNHLLSQTKLNQEQRNYLDGMKQSGQSLVQLVEDLLDYSTMEAGRFRLNPRAENLRRLIESIVEMLAHRAHEKGIEIASFVTPDVPDYLDFDPARLRQVLFNLIGNAVKFTQVGGVVIRARMVDGELQITVEDTGPGMSEAEQARIFGEFEQAGPLSQRSAGTGLGLAISARIVREFGGNLTVSSRRGEGSTFKLVFRPGRAPAEMPDSGRSHCLQHTNVLLIAPEGVAAAVTMEAIEAFGGKCILIHQPEDLDRLRNEPVSRTADLTDIIVDLRISALFRDALRDWPQQTIRRTLLVSPEERASTTHASFDAWLIRPLREKSLIDVLCGRLRGIERRDAINDNHPDVGFSSRVVERASGVEILVAEDDAVNARIIRAVLEKSGYIVRAVDNFQALQQSVASGASRLPNLIVSDLNMPGGEGLDVLPDLLGKLKDERNIPVIILSGDAGAGTAEILLKAGAGAVLAKPADPRRLVEEIRRLLEAKRVLSS	failed
MSELIAQLLVYIKGIWKYRWASVATAWTVAIAGWFFVYQMPDNYQASARIYVDTQSILRPLMAGMTVSPNPDQQITIMSRTLISRPNVERIIRMVDLDIKITDDSAREKLVTTLMKDIKLSTTGSDNIFMISYDNKDPRLAKDIVQSLLTIFVEGGLEGKKQDSASALRFIDQQIAAYEEKLVAAEAALTAFKQKNIGFLPGQGGDYYSQLVSAAEELEKARLTLLEAEQARDAVKKQITGDEPVLLFEVGEVSPQSIVNPEIDSRIQALNTNLDNLMLNFTDQHPDVVATKRLIAQLEERKVEEAKLAGTVNNRGRNYDPMMQQLNIALAESEAQVASMKARVAEYEARFERLKSMSNTVPAVEVEMQQLNRDYNVNKANYEKLLERRASAEISGELTSTSGLMSFRIVDPPTVPEAPSGPDRKKFFTLVLIGALAGGIGFAFIISQIRPTFHSQSTLRELTGLPILGTIPMVWTEQQKLKDKRKIYAFGISLLMLMACYVVLMIYVKPHGMTAA	failed
MSELITYHAEDGIATLTLNNGKVNAISPDVITAFNAALDRATEERAVVIITGQPGILSGGYDLKVMTRGPQEAISLVTAGSTLARRLLSHPFPVVVACPGNAVAKGAFLLLSADYRIGVEGPYKVCLNEVQIGMTMHHAGIELARDRLRRSAFHRSVINAEVFDPQGAVDAGFLDKVVPAEQLQEAAMTAARELKKLN	failed
MSENNSNREPQKDVGKGNNSLMRWVGRLVLFAIILAITSFLTPGFSIRGFWTFVLASVVITGLDYLVESFMKVDASPFGKGLKGFIISAVIIYLAQFLVPNMRVSIIGAILASLVIGVIDAIIPSRSM	failed
